# Test results taken from the RNAGym collection of RNA variant scans (doi:10.7554/elife.80360).
# B1: Hairpin Ribozyme (parent)
# chain: GUCCUCUUUCACGUGCGCGUGAAAGAGAGAAGUGAACCAGAGAAACACACGUUGUGGUAUAUUACCUGGUA
# Variants of: B1
# Experiment: self-cleavage, relative activity (ratio to wild type); higher = more cleavage; co-transcriptional
row,Variant,self-cleavage
1,GUCCUCUUUCACGUGCGCGUGAAACAGAGAAGUGAACCAGAGAAACACACGUUGUGGUAUGUUACCUGGUA [G25C A61G],0.115
2,GUCCUCUUUCACGUGCGCGUGAAACAGAGAAGUGAACCAGAGAAAAACACGUUGUGGUAUAUUACCUGGUA [G25C C46A],0.129
3,GUCCUCUUUCACGUGCGCGUGAAAAAGAGAAGUGAACCAGAGAAACACACGUUGUGGUACAUUACCUGGUA [G25A U60C],0.976
4,GUCCUCUUUCACGUGCGCGUGAAAAAGAGAAGUGAACCAGAGAAACACACGUUGUGGUAAAUUACCUGGUA [G25A U60A],0.626
5,GUCCUCUUUCACGUGCGCGUGAAACAGAGAAGUGAACCAGAGACACACACGUUGUGGUAUAUUACCUGGUA [G25C A44C],0.174
6,GUCCUCUUUCACGUGCGCGUGAAAAAGAGAAGUGAACCAGAGAAACACACGUUGUGGUAUGUUACCUGGUA [G25A A61G],0.208
7,GUCCUCUUUCACGUGCGCGUGAAAAAGAGAAGUGAACCAGAGAAACACACGUUGAGGUAUAUUACCUGGUA [G25A U55A],0.149
8,GUCCUCUUUCACGUGCGCGUGAAACAGAGAAGUGAACCAGAGAAACACACGUUCUGGUAUAUUACCUGGUA [G25C G54C],0.139
9,GUCCUCUUUCACGUGCGCGUGAAAAAGAGAAGUGAACCAGAGAAACACACGUUUUGGUAUAUUACCUGGUA [G25A G54U],0.392
10,GUCCUCUUUCACGUGCGCGUGAAAAAGAGAAGUGAACCAGAGAAACACACGUUCUGGUAUAUUACCUGGUA [G25A G54C],0.219
11,GUCCUCUUUCACGUGCGCGUGAAAAAGAGAAGUGAACCAGAGAAACACACGUUAUGGUAUAUUACCUGGUA [G25A G54A],0.292
12,GUCCUCUUUCACGUGCGCGUGAAACAGACAAGUGAACCAGAGAAACACACGUUGUGGUAUAUUACCUGGUA [G25C G29C],0.166
13,GUCCUCUUUCACGUGCGCGUGAAACAGAUAAGUGAACCAGAGAAACACACGUUGUGGUAUAUUACCUGGUA [G25C G29U],0.188
14,GUCCUCUUUCACGUGCGCGUGAAACAGAGAAGUGAAUCAGAGAAACACACGUUGUGGUAUAUUACCUGGUA [G25C C37U],0.502
15,GUCCUCUUUCACGUGCGCGUGAAAAAGAGAAGUGAACCAGAGAAACACACGUUGUGGUAUAUUACGUGGUA [G25A C66G],0.133
16,GUCCUCUUUCACGUGCGCGUGAAACAGAGAAGUGAACCAGAGAAACACACGUUGUGCUAUAUUACCUGGUA [G25C G57C],0.12
17,GUCCUCUUUCACGUGCGCGUGAAACAGAGAACUGAACCAGAGAAACACACGUUGUGGUAUAUUACCUGGUA [G25C G32C],0.116
18,GUCCUCUUUCACGUGCGCGUGAAACAGAGAAGUGAACCAGAGAAACACACGUUGUGGUAUAUUACCUGGUC [G25C A71C],1.02
19,GUCCUCUUUCACGUGCGCGUGAAACCGAGAAGUGAACCAGAGAAACACACGUUGUGGUAUAUUACCUGGUA [G25C A26C],0.199
20,GUCCUCUUUCACGUGCGCGUGAAACUGAGAAGUGAACCAGAGAAACACACGUUGUGGUAUAUUACCUGGUA [G25C A26U],0.248
21,GUCCUCUUUCACGUGCGCGUGAAAAAGAGAAGUGAACCAGAGAAAGACACGUUGUGGUAUAUUACCUGGUA [G25A C46G],0.135
22,GUCCUCUUUCACGUGCGCGUGAAAAAGAGAAGUGAACCAGACAAACACACGUUGUGGUAUAUUACCUGGUA [G25A G42C],0.182
23,GUCCUCUUUCACGUGCGCGUGAAAAAGAGAAGUGAACCAGAGCAACACACGUUGUGGUAUAUUACCUGGUA [G25A A43C],0.136
24,GUCCUCUUUCACGUGCGCGUGAAAAAGAGAAGUGAACCAGAGUAACACACGUUGUGGUAUAUUACCUGGUA [G25A A43U],0.186
25,GUCCUCUUUCACGUGCGCGUGAAAAAGAGAAGUGAACCAGAGAAACACACGUUGUGGUAUAUUACCAGGUA [G25A U67A],0.118
26,GUCCUCUUUCACGUGCGCGUGAAACAGAGAAGUGUACCAGAGAAACACACGUUGUGGUAUAUUACCUGGUA [G25C A35U],0.228

row,Variant,self-cleavage
1,GUCCUCUUUCACGUGCGCGUGAAAAAGAGAAGUGAACCAGAGAAACACACGUUGUGGUAUAUUACCUGGUG [G25A A71G],0.66
2,GUCCUCUUUCACGUGCGCGUGAAAAAGAGAAGUGAACCAGAGAAACACACGUUGUGGUAUAUUACCUGGUU [G25A A71U],0.553
3,GUCCUCUUUCACGUGCGCGUGAAAAAGAGAAGUGAACCAGAGAAACACAUGUUGUGGUAUAUUACCUGGUA [G25A C50U],0.315
4,GUCCUCUUUCACGUGCGCGUGAAAAAGAGAAGUGAACCAGAGAAACACACUUUGUGGUAUAUUACCUGGUA [G25A G51U],0.724
5,GUCCUCUUUCACGUGCGCGUGAAACAGAGAAGUGAACCAGACAAACACACGUUGUGGUAUAUUACCUGGUA [G25C G42C],0.236
6,GUCCUCUUUCACGUGCGCGUGAAACAGAGAAGUGAACCAGAUAAACACACGUUGUGGUAUAUUACCUGGUA [G25C G42U],0.182
7,GUCCUCUUUCACGUGCGCGUGAAACAGAGCAGUGAACCAGAGAAACACACGUUGUGGUAUAUUACCUGGUA [G25C A30C],0.21
8,GUCCUCUUUCACGUGCGCGUGAAACAGAGUAGUGAACCAGAGAAACACACGUUGUGGUAUAUUACCUGGUA [G25C A30U],0.116
9,GUCCUCUUUCACGUGCGCGUGAAACAGAGGAGUGAACCAGAGAAACACACGUUGUGGUAUAUUACCUGGUA [G25C A30G],0.157
10,GUCCUCUUUCACGUGCGCGUGAAAAAGAGAAGUGAACCAGAGAAACUCACGUUGUGGUAUAUUACCUGGUA [G25A A47U],0.108
11,GUCCUCUUUCACGUGCGCGUGAAACAGUGAAGUGAACCAGAGAAACACACGUUGUGGUAUAUUACCUGGUA [G25C A28U],0.327
12,GUCCUCUUUCACGUGCGCGUGAAAAACAGAAGUGAACCAGAGAAACACACGUUGUGGUAUAUUACCUGGUA [G25A G27C],0.155
13,GUCCUCUUUCACGUGCGCGUGAAAAAGAUAAGUGAACCAGAGAAACACACGUUGUGGUAUAUUACCUGGUA [G25A G29U],0.164
14,GUCCUCUUUCACGUGCGCGUGAAAAAGACAAGUGAACCAGAGAAACACACGUUGUGGUAUAUUACCUGGUA [G25A G29C],0.118
15,GUCCUCUUUCACGUGCGCGUGAAACAGAGAAGUGAACCAGAGAAACAUACGUUGUGGUAUAUUACCUGGUA [G25C C48U],0.187
16,GUCCUCUUUCACGUGCGCGUGAAACAGAGAAGUGAACCAGAGAAACAAACGUUGUGGUAUAUUACCUGGUA [G25C C48A],0.129
17,GUCCUCUUUCACGUGCGCGUGAAACAGAGAAGUGAACCAGAGAAACAGACGUUGUGGUAUAUUACCUGGUA [G25C C48G],0.127
18,GUCCUCUUUCACGUGCGCGUGAAAAAGAGAAGUGAACCAGAGAAACACACGUUGUGGUAUAUUACCUGGAA [G25A U70A],0.519
19,GUCCUCUUUCACGUGCGCGUGAAACAGAGAAGUGAACCAGAGGAACACACGUUGUGGUAUAUUACCUGGUA [G25C A43G],0.116
20,GUCCUCUUUCACGUGCGCGUGAAACAGAGAAGUGAACCAGAGAAACACCCGUUGUGGUAUAUUACCUGGUA [G25C A49C],0.136
21,GUCCUCUUUCACGUGCGCGUGAAAAAGAGAAGUGAACCAGAGAAACACACGCUGUGGUAUAUUACCUGGUA [G25A U52C],0.7
22,GUCCUCUUUCACGUGCGCGUGAAACAGAGAAGUGAACCAGAGAAACACAUGUUGUGGUAUAUUACCUGGUA [G25C C50U],0.192
23,GUCCUCUUUCACGUGCGCGUGAAAAAGAGAAGUGAACCGGAGAAACACACGUUGUGGUAUAUUACCUGGUA [G25A A39G],0.192
24,GUCCUCUUUCACGUGCGCGUGAAAAAGAGAAGUGAACCUGAGAAACACACGUUGUGGUAUAUUACCUGGUA [G25A A39U],0.285
25,GUCCUCUUUCACGUGCGCGUGAAAAAGAGAAGUGAACCAGCGAAACACACGUUGUGGUAUAUUACCUGGUA [G25A A41C],0.814
26,GUCCUCUUUCACGUGCGCGUGAAAAAGAGAAGUGAACCAGUGAAACACACGUUGUGGUAUAUUACCUGGUA [G25A A41U],0.85

row,Variant,self-cleavage
1,GUCCUCUUUCACGUGCGCGUGAAAAAGAGAAGUGAACCAGAGAAACACACGUUGUCGUAUAUUACCUGGUA [G25A G56C],0.117
2,GUCCUCUUUCACGUGCGCGUGAAAAAGAGAAGUGAACCAGAGAAACACACGUUGUAGUAUAUUACCUGGUA [G25A G56A],0.105
3,GUCCUCUUUCACGUGCGCGUGAAACACAGAAGUGAACCAGAGAAACACACGUUGUGGUAUAUUACCUGGUA [G25C G27C],0.171
4,GUCCUCUUUCACGUGCGCGUGAAACAGAGAAGUGAACCAGCGAAACACACGUUGUGGUAUAUUACCUGGUA [G25C A41C],0.622
5,GUCCUCUUUCACGUGCGCGUGAAACAGAGAAGUGAACCAGGGAAACACACGUUGUGGUAUAUUACCUGGUA [G25C A41G],0.298
6,GUCCUCUUUCACGUGCGCGUGAAACAGAGAAGUGAACCAGAGAAACCCACGUUGUGGUAUAUUACCUGGUA [G25C A47C],0.217
7,GUCCUCUUUCACGUGCGCGUGAAAAAGAGAAGUGUACCAGAGAAACACACGUUGUGGUAUAUUACCUGGUA [G25A A35U],0.39
8,GUCCUCUUUCACGUGCGCGUGAAAAAGAGAAGUGGACCAGAGAAACACACGUUGUGGUAUAUUACCUGGUA [G25A A35G],0.738
9,GUCCUCUUUCACGUGCGCGUGAAACAGAGAAGUGAACCAGAGAAACACACGUUGUCGUAUAUUACCUGGUA [G25C G56C],0.148
10,GUCCUCUUUCACGUGCGCGUGAAACAGAGAAGUGAACCAGAGAAACACACGUUGUUGUAUAUUACCUGGUA [G25C G56U],0.153
11,GUCCUCUUUCACGUGCGCGUGAAACAGAGAAGUGAACCAGAGAAACACACUUUGUGGUAUAUUACCUGGUA [G25C G51U],0.624
12,GUCCUCUUUCACGUGCGCGUGAAACAGAGAAGUGAACCGGAGAAACACACGUUGUGGUAUAUUACCUGGUA [G25C A39G],0.168
13,GUCCUCUUUCACGUGCGCGUGAAAAAGAGAAGUGAACCAGAGAAACACACGUUGUGUUAUAUUACCUGGUA [G25A G57U],0.113
14,GUCCUCUUUCACGUGCGCGUGAAAAAGAGAAAUGAACCAGAGAAACACACGUUGUGGUAUAUUACCUGGUA [G25A G32A],0.216
15,GUCCUCUUUCACGUGCGCGUGAAAAAGAGAAGUGAACCAGAGAAACACCCGUUGUGGUAUAUUACCUGGUA [G25A A49C],0.232
16,GUCCUCUUUCACGUGCGCGUGAAAAAGAGAAGUGAACCAGAGAAACACACGUUGUGGUAUAGUACCUGGUA [G25A U62G],0.125
17,GUCCUCUUUCACGUGCGCGUGAAAAAGAGAAGUCAACCAGAGAAACACACGUUGUGGUAUAUUACCUGGUA [G25A G34C],1.34
18,GUCCUCUUUCACGUGCGCGUGAAACAGAGAAGUGAACAAGAGAAACACACGUUGUGGUAUAUUACCUGGUA [G25C C38A],0.0929
19,GUCCUCUUUCACGUGCGCGUGAAAAAGAGAAGUGAACCAGAGAAGCACACGUUGUGGUAUAUUACCUGGUA [G25A A45G],0.24
20,GUCCUCUUUCACGUGCGCGUGAAAAAGAGAAGUGAACAAGAGAAACACACGUUGUGGUAUAUUACCUGGUA [G25A C38A],0.173
21,GUCCUCUUUCACGUGCGCGUGAAAAAGAGAAGUGAACGAGAGAAACACACGUUGUGGUAUAUUACCUGGUA [G25A C38G],0.252
22,GUCCUCUUUCACGUGCGCGUGAAAAAGAGAAGUGACCCAGAGAAACACACGUUGUGGUAUAUUACCUGGUA [G25A A36C],0.301
23,GUCCUCUUUCACGUGCGCGUGAAAAAGAGAAGUGAGCCAGAGAAACACACGUUGUGGUAUAUUACCUGGUA [G25A A36G],0.605
24,GUCCUCUUUCACGUGCGCGUGAAACAGAGAGGUGAACCAGAGAAACACACGUUGUGGUAUAUUACCUGGUA [G25C A31G],0.153
